Where two headings read alike, the source gives them in different places.
What was measured:
Test in all cases: SPR
[1] = target: 16E6L/V (C-terminal peptide of HPV16 early protein E6 with L158V) (human papilloma virus 16)
[2] = target: 16E6L/V (C-terminal peptide of HPV16 early protein E6 with L158V) (human papilloma virus 16); remark: listed apart in the source
[3] = target: 16E6L/V (C-terminal peptide of HPV16 early protein E6 with L158V) (human papilloma virus 16); remark: listed apart in the source
[4] = target: 16E6L/V (C-terminal peptide of HPV16 early protein E6 with L158V) (human papilloma virus 16); remark: listed apart in the source

Sequence of MAGI1-3/6 (MBP fusion of the third of the six PDZ domains of MAGI1) (Q6RHR9 613-752): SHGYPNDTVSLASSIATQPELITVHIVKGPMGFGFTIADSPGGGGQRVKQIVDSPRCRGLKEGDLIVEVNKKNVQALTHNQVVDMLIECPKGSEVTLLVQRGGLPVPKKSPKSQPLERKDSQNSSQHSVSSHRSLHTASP
Sequence of SCRIB-3/4 (MBP fusion of the third of the four PDZ domains of SCRIB) (Q14160 997-1093): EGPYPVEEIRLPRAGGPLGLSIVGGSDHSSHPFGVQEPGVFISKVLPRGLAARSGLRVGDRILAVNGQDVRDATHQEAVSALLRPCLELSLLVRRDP
Sequence of MAGI1-2/6 (MBP fusion of the second of the six PDZ domains of MAGI1) (Q6RHR9 448-572): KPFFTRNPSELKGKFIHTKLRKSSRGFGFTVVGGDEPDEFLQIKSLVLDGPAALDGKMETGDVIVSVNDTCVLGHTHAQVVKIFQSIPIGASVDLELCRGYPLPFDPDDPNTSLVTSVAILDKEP
Sequence of SCRIB-34/4 (MBP fusion of the tandem of the third and fourth PDZ domains of SCRIB) (Q14160 997-1193): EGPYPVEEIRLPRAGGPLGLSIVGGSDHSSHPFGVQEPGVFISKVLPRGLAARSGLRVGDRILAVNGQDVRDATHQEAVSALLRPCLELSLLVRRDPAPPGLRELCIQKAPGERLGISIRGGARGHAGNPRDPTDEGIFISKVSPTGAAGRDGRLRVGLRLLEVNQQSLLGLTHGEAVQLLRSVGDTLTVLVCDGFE

Row | Substance | Kd [1] | Kd [2] | Kd [3] | Kd [4]
1 | MAGI1-2/6 (MBP fusion of the second of the six PDZ domains of MAGI1) (from UniProt Q6RHR9-1 448-572) (domain or fragment) | 2 µM | 18 µM | 1 µM | 
2 | MAGI1-3/6 (MBP fusion of the third of the six PDZ domains of MAGI1) (from UniProt Q6RHR9-1 613-752) (domain or fragment) | 69 µM | 76 µM | 202 µM | 
3 | SCRIB-3/4 (MBP fusion of the third of the four PDZ domains of SCRIB) (from UniProt Q14160-1 997-1093) (domain or fragment) | 18 µM | 41 µM | 32 µM | 
4 | SCRIB-34/4 (MBP fusion of the tandem of the third and fourth PDZ domains of SCRIB) (from UniProt Q14160-1 997-1193) (domain or fragment) | 3 µM |  |  | 4 µM
